Measured values published in IntAct's records for PubMed 24855949.

What was measured:
iaspp_human PPP1R13L [1] = target: T1, iaspp_human PPP1R13L (UniProt Q8WUF5)
T1 sequence: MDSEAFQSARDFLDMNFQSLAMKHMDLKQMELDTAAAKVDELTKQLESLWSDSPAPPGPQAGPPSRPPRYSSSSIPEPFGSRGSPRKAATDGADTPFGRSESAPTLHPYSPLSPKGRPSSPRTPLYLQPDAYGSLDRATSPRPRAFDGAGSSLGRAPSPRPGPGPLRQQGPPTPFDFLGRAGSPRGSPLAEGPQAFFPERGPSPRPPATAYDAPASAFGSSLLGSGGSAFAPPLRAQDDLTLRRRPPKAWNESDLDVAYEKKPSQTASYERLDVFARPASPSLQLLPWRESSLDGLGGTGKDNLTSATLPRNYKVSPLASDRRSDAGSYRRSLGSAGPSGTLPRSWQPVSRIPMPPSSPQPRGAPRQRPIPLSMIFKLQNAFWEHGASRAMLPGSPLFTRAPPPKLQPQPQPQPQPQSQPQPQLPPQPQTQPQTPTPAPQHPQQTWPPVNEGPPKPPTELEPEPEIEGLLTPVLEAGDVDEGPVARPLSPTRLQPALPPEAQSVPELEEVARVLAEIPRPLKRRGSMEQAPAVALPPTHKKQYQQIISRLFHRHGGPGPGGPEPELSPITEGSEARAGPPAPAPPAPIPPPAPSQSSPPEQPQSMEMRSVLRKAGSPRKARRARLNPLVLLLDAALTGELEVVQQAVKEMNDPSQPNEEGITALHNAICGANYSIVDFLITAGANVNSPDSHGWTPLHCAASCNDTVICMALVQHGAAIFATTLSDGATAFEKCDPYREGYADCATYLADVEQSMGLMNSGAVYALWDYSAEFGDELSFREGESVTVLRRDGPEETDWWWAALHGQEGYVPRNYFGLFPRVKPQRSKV

cdn2a_human CDKN2A = cdn2a_human CDKN2A (UniProt P42771)
ikba_chick NFKBIA = ikba_chick NFKBIA (UniProt Q91974)
iaspp_human PPP1R13L [2] = target: T1, iaspp_human PPP1R13L; remark: listed apart in the source

ikba_chick NFKBIA, sequence (Q91974 whole entry): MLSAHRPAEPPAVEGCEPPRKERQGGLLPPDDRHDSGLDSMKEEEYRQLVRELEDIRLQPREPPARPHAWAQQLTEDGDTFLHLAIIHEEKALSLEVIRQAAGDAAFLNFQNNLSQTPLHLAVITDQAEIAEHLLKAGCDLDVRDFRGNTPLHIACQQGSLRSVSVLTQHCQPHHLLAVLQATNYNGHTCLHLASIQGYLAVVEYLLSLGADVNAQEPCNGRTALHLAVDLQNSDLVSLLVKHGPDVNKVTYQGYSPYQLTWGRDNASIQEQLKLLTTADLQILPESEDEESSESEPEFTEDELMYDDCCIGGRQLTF

effect of a mutation on the interaction (iaspp_human PPP1R13L [1]) | effect of a mutation on the interaction (cdn2a_human CDKN2A) | effect of a mutation on the interaction (ikba_chick NFKBIA) | effect of a mutation on the interaction (iaspp_human PPP1R13L [2]) | Substance
disrupting interaction strength | disrupting interaction strength | – | – | GTP-binding nuclear protein Ran (Homo sapiens) (from UniProt P62826) Q69L
– | – | decreasing interaction strength | decreasing interaction strength | GTP-binding nuclear protein Ran (Homo sapiens) (from UniProt P62826) V187R;V188R
– | – | decreasing interaction strength | – | GTP-binding nuclear protein Ran (Homo sapiens) (from UniProt P62826) V188R
